Experimental data as given in the nanobody polyreactivity screen of Harvey et al. (2022).

Assay: yeast display, Sf9 membrane polyspecificity reagent, FACS + sequencing; frameworks hold sequencing errors
Method in brief: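 Sorting gates, low and high (top ~1%), were placed on anti-HA fluorescence to track expression and on streptavidin fluorescence to track reagent binding. A clone's polyreactivity label is taken from the gate it came out of. The reagent was 10% biotinylated, detergent-solubilized Sf9 membrane, applied for 1 hour at 4 °C to galactose-induced yeast display cells.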

Sequence	polyreactivity (PSR sort gate)
QVQLVESGGVLVQAGGSLRLSCAASGSIFVYYGMGWYRQAPGKEREFVAAIWTGGSTYYADSVKGRFTISRDNAKNTVYLQMNSLKPEDTAVYYCAADRRGSHYYRYKYGYWGQGTQVTVSS	high polyreactivity
QVQLVESGGGLVQAGGSLRLSCAASGITFSFYAMGWYRQAPGKERELVADITRGGNTNYADSVKGRFTISRDNAKNTVYLQMNSLKPEDTAVYYCNARRRGAGGYDYWGQGTQVTVSS	high polyreactivity
QVQLVESGGGLVQAGGSLRLSCAASGFIFRYYAMGSYRQAPGKERELVAAITSGGASTYYADSVKGRFTISRDNAMNTVYLQMNSLKPDDTAVYYCAADTSSYSEYEYWGQGTQVTVSS	low polyreactivity
QVQLVESGGGLVQAGGSLRLSCAASGFIFWYYALGWYRQAPGKERELVAAISARDGSTYYADSVKGRFTISRDNAKNTVYLQMNSLKPEDTAVYYCNAVQRYPKFRMDYWGQGTQVTVSS	low polyreactivity
QVQLVESGGCLVQAGGSLRLSCAASGSTFDYYAMGWYTQAPGKERELVAAISSSGSSTYYADSVKGRFTISRDNAKNTVYLQMNSLKPEDTAVYYCAKGTNYRDDYWGQGTQVTVSS	low polyreactivity
QVQLVESGGRLGQAVGSLRLSCAASGSIFLQNAMGWYRQAPGKERELVAAITNGGSTNYADSVKGRCTISRDNAKNTVYLQINSLKPEDTAVYYCAAYPLYTGSYDRGGYWGLGTQVTVSS	low polyreactivity
QVQLVESGGGLVQAGGSLSLSCAASGSIFVRYAMGWSRHAPWKERELVAAISVRGGRTYYAYSVKGRFTISRDNAKNTVYLQMNRLKPEATAVYYCAAQLYYYYSYVPPGGYWGQGTQVTVSA	high polyreactivity
QDQLVESGGGLVQAGGSLRLSCAASGINLSAYAMGWYRQAPGKERELVARISRSGGRTYYADSVKGRFTISRDNAKNTVYLQRNSLKQDDTAVYYCAADYTYGFGLYFGFGYWGQGTKVTVSS	high polyreactivity
QVQLVESGGGLVQAGGSLRFSSAASGSIFGTYVMGWYRQAPGKERELVAAISWSGGSTYYADSVKGRFTISRDNAKNTVYLQMNSLKPEDTAVYYCAADSIRFEYEYWGQGTQVTVSS	high polyreactivity
QVQLVESGGGLVQAGGSLRLSCAATGLIFGWYAMGWYRQAPGKERELVAAISYSGGRTYYADSVKGRFTISRDNAKNTVYLQMNSLKPEDSAVYYCAAIVLQLRGRGYEYWGQGTQVTVSS	high polyreactivity
QVQLVESVGGLVQAGGSLRLSCAASGITFRYYAMGWYRQAPGKERELVADINRGSDTNYADSVKGRFTISRDNAKNTVYLQMNSLKPEDTAVYYCAARSFRSRFRLYIVEFGGYDYWGQGTQVTVSS	low polyreactivity
QVQLVDSGGGLVQAGGSLRLSCAASGRIFAWYAMGWYRQAPGKERELVAAISSGGSTNYADSVKGRFTISRDNAKNTVYLQMNSLKPEDTAVYYCNRYPVRDTGGYWGQGTQVTVSS	low polyreactivity
QVQLVESGGGLVQAGGSLRLSCAASGSIFVKYAMGWYRQAPGTERELVAAISGSGGSTYYADSVKGRFTISRDNAKNTVYLQMNSLKPEDTAVYYCAADDYFYSGRYGFEYWGQGTQVTVSS	low polyreactivity
QVQLVESGGGLVQAGGSLRLSCAASGSTFEYNAMGWYRQAPGKERELVASSTNYADSVKGRFTISRDNAKNTVYLQMNSLKPEDTAVYYCAREQGVNRNHDYWGQGTQGTVSS	low polyreactivity
QVQLVESGGGLVQAGGSLRLSCAASGNTIDRYDMGWYRQPPGKEREFVAAITASAGSTYADSVKGRFTISRDNAKNTVYLQMNSLKPEDSAVYYCNAGNSSTGVDRYDYWGQGTQVTVSS	low polyreactivity
QVQLVESGGGLVQAGGSLRLICAASGRIFRPYAMGWYRQAPGKERELVAAISSSGGSTYYADSVKGRFTISRDNAKNTVYLQMNSLKPEDTAVYYCATYFARGRRYDYWGQGTQVTVSS	high polyreactivity
QVQLVESGGGLVQAGGSLRLSCAASGITFYFNAMGWYRQAPGKERELVAAISFSGGGTYYADSVKGRFTISRDNAKNTVYLQMTSLKPEDTAVYYCNADYGRGTLRSIYDYWGQGTQVTVSS	low polyreactivity
